Key:
[1] = target: T1, Progesterone receptor isoform B (PR-B) (Homo sapiens, UniProt P06401 1-933); test: EMSA; EMSA: 20 min at room temperature, 5% acrylamide-bisacrylamide gel; buffer, salt and pH not stated; conditions: protein: recombinant; chain copies: 2; (radioactive); blunt
[2] = target: T1, Progesterone receptor isoform B (PR-B); test: competition; 100-fold unlabeled competitor vs labeled no-CpG PRE, 2.4 ug PR-B; high-affinity competitor; EMSA: 20 min at room temperature, 5% acrylamide-bisacrylamide gel; buffer, salt and pH not stated; conditions: protein: recombinant; chain copies: 2; (radioactive); blunt

T1 sequence (P06401 whole entry, canonical isoform): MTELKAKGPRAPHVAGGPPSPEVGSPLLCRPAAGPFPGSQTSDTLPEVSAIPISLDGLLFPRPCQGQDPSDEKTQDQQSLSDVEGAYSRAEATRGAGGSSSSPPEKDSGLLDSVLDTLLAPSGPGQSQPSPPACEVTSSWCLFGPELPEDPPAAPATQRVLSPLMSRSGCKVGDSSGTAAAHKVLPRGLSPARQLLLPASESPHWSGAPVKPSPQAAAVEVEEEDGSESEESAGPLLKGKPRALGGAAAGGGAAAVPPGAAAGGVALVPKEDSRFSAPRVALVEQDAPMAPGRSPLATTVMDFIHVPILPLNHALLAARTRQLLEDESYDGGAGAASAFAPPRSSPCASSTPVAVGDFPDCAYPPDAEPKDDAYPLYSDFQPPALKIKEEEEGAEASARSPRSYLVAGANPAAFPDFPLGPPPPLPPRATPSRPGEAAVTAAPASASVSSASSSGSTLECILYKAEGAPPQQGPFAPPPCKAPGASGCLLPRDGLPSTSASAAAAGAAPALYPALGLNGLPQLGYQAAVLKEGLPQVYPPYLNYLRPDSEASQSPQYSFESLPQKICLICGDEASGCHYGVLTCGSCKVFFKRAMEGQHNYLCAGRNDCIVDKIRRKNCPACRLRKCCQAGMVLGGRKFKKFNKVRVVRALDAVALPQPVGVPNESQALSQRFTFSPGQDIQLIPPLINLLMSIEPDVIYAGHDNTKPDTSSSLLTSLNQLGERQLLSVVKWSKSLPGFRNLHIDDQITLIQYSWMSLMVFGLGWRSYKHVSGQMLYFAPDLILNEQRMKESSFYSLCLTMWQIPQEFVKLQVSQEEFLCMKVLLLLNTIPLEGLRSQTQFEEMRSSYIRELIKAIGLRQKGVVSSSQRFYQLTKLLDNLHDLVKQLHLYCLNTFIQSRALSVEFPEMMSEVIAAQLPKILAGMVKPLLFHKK

Row | Binder | binding result [1] | binding result [2]
1 | PRE no CpG (dsDNA) DNA 1: GTTGAGTCAGAACAGTTTGTTCTCTAGGCAC DNA 2: GTGCCTAGAGAACAAACTGTTCTGACTCAAC | binds | –
2 | PRE two CpGs, unmethylated (dsDNA) DNA 1: GTTGAGTCAGAACGGTTCGTTCTCTAGGCAC DNA 2: GTGCCTAGAGAACGAACCGTTCTGACTCAAC | – | binds
